# Test system: Escherichia coli TOP10
# Assay: shrunken log2 fold change of peptide-encoding DNA abundance (4.5 h post-induction vs induction); higher = less antimicrobial activity (less host growth inhibition)
# Details: time post-induction: 4.5 h; library: site-saturation at positions 5, 18, 19, 20
# 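Further: peptides expressed intracellularly from a pBAD plasmid library in pooled LB shake-flask culture, induced with 0.3% L-arabinose, DNA abundance read by NGS, three biological replicates, DESeq2 with apeglm shrinkage.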
row,Sequence,shrunken log2 fold change
1,RRIRERPPRLPRPRPRPKFKPRP,-0.355
2,RRIRERPPRLPRPRPRPDITPRP,3.39
3,RRIRHRPPRLPRPRPRPMDDPRP,-0.118
4,RRIRFRPPRLPRPRPRPLGDPRP,0.4
5,RRIRSRPPRLPRPRPRPPMSPRP,-0.0301
6,RRIRRRPPRLPRPRPRPMCMPRP,-0.0115
7,RRIRQRPPRLPRPRPRPTVPPRP,-0.0488
8,RRIRARPPRLPRPRPRPDCAPRP,0.826
9,RRIRKRPPRLPRPRPRPAWNPRP,1
10,RRIRLRPPRLPRPRPRPLRDPRP,0.356
11,RRIRSRPPRLPRPRPRPPTGPRP,0.369
12,RRIRRRPPRLPRPRPRPQGCPRP,-0.189
13,RRIRGRPPRLPRPRPRPEKDPRP,1.27
14,RRIRHRPPRLPRPRPRPHQKPRP,-0.0284
15,RRIRLRPPRLPRPRPRPKWRPRP,0.39
16,RRIRSRPPRLPRPRPRPVTWPRP,0.0066
17,RRIRIRPPRLPRPRPRPDDVPRP,-0.00433
18,RRIRLRPPRLPRPRPRPPWKPRP,0.153
19,RRIRERPPRLPRPRPRPPFVPRP,0.072
20,RRIRERPPRLPRPRPRPVSCPRP,0.182
21,RRIRARPPRLPRPRPRPVDHPRP,-0.0253
22,RRIRWRPPRLPRPRPRPRFPPRP,0.304

row,Sequence,shrunken log2 fold change
1,RRIRKRPPRLPRPRPRPPIVPRP,-0.121
2,RRIRGRPPRLPRPRPRPEKNPRP,0.921
3,RRIRCRPPRLPRPRPRPFGTPRP,-0.256
4,RRIRPRPPRLPRPRPRPQFQPRP,-0.192
5,RRIRERPPRLPRPRPRPDRWPRP,-0.0318
6,RRIRIRPPRLPRPRPRPTEEPRP,0.146
7,RRIRGRPPRLPRPRPRPMFTPRP,0.522
8,RRIRQRPPRLPRPRPRPQLQPRP,0.112
9,RRIRRRPPRLPRPRPRPNVWPRP,1.99
10,RRIRIRPPRLPRPRPRPINMPRP,-0.956
11,RRIRSRPPRLPRPRPRPQYGPRP,-0.118
12,RRIRHRPPRLPRPRPRPQYSPRP,-0.572
13,RRIRLRPPRLPRPRPRPVDHPRP,-0.0221
14,RRIRWRPPRLPRPRPRPNSIPRP,-0.396
15,RRIRFRPPRLPRPRPRPGNSPRP,0.00114
16,RRIRERPPRLPRPRPRPSENPRP,-0.293
17,RRIRSRPPRLPRPRPRPYCSPRP,-0.094
18,RRIRTRPPRLPRPRPRPKIGPRP,-0.0689
19,RRIRGRPPRLPRPRPRPQDRPRP,0.297
20,RRIRWRPPRLPRPRPRPSLVPRP,-0.0104
21,RRIRLRPPRLPRPRPRPIHVPRP,-0.0124
22,RRIRERPPRLPRPRPRPPQIPRP,0.15

row,Sequence,shrunken log2 fold change
1,RRIRNRPPRLPRPRPRPFKMPRP,-0.258
2,RRIRVRPPRLPRPRPRPNQFPRP,-0.349
3,RRIRTRPPRLPRPRPRPHEAPRP,-0.0062
4,RRIRQRPPRLPRPRPRPDITPRP,-0.00487
5,RRIRWRPPRLPRPRPRPTQEPRP,0.0333
6,RRIRQRPPRLPRPRPRPLWTPRP,-0.042
7,RRIRTRPPRLPRPRPRPMNAPRP,0.194
8,RRIRSRPPRLPRPRPRPILLPRP,-0.334
9,RRIRNRPPRLPRPRPRPYKVPRP,-0.324
10,RRIRERPPRLPRPRPRPVHYPRP,0.198
11,RRIRYRPPRLPRPRPRPSNIPRP,-1.25
12,RRIRYRPPRLPRPRPRPRAYPRP,-0.0333
13,RRIRARPPRLPRPRPRPANWPRP,0.215
14,RRIRSRPPRLPRPRPRPMHCPRP,0.377
15,RRIRERPPRLPRPRPRPNLRPRP,0.0952
16,RRIRYRPPRLPRPRPRPQPFPRP,0.00414
17,RRIRMRPPRLPRPRPRPQGFPRP,-0.00865
18,RRIRWRPPRLPRPRPRPGCDPRP,0.818
19,RRIRMRPPRLPRPRPRPRLFPRP,0.998
20,RRIRVRPPRLPRPRPRPGCNPRP,-0.216
21,RRIRLRPPRLPRPRPRPMLMPRP,-0.177
22,RRIRMRPPRLPRPRPRPSWHPRP,-0.103

row,Sequence,shrunken log2 fold change
1,RRIRNRPPRLPRPRPRPEMMPRP,0.317
2,RRIRPRPPRLPRPRPRPQAYPRP,-0.215
3,RRIRSRPPRLPRPRPRPGGDPRP,0.514
4,RRIRVRPPRLPRPRPRPTDYPRP,-0.479
5,RRIRSRPPRLPRPRPRPSITPRP,-0.392
6,RRIRTRPPRLPRPRPRPRWSPRP,0.0798
7,RRIRKRPPRLPRPRPRPKGAPRP,0.217
8,RRIRHRPPRLPRPRPRPPAAPRP,0.0555
9,RRIRERPPRLPRPRPRPEVTPRP,-0.0794
10,RRIRIRPPRLPRPRPRPCYDPRP,-0.014
11,RRIRQRPPRLPRPRPRPARMPRP,0.195
12,RRIRNRPPRLPRPRPRPEGEPRP,0.481
13,RRIRKRPPRLPRPRPRPTAPPRP,1.05
14,RRIRTRPPRLPRPRPRPYNAPRP,-1.3
15,RRIRQRPPRLPRPRPRPGRSPRP,0.105
16,RRIRQRPPRLPRPRPRPWSSPRP,-0.0435
17,RRIRLRPPRLPRPRPRPYKPPRP,-0.789
18,RRIRWRPPRLPRPRPRPWWVPRP,0.13
19,RRIRARPPRLPRPRPRPSSIPRP,0.101
20,RRIRLRPPRLPRPRPRPCDCPRP,-0.0629
21,RRIRLRPPRLPRPRPRPHPCPRP,-0.0967
22,RRIRCRPPRLPRPRPRPRHFPRP,-0.374

row,Sequence,shrunken log2 fold change
1,RRIRRRPPRLPRPRPRPDEYPRP,-0.0588
2,RRIRMRPPRLPRPRPRPKDKPRP,1.93
3,RRIRVRPPRLPRPRPRPAPWPRP,0.395
4,RRIRCRPPRLPRPRPRPSYNPRP,-0.816
5,RRIRSRPPRLPRPRPRPTLKPRP,-0.139
6,RRIRDRPPRLPRPRPRPAEVPRP,0.46
7,RRIRSRPPRLPRPRPRPMLHPRP,-0.424
8,RRIRWRPPRLPRPRPRPWQTPRP,-0.0178
9,RRIRQRPPRLPRPRPRPFVRPRP,-0.0842
10,RRIRPRPPRLPRPRPRPGRDPRP,0.286
11,RRIRLRPPRLPRPRPRPVDGPRP,0.0489
12,RRIRHRPPRLPRPRPRPSMKPRP,-0.436
13,RRIRPRPPRLPRPRPRPVETPRP,-0.158
14,RRIRIRPPRLPRPRPRPKVSPRP,0.0423
15,RRIRMRPPRLPRPRPRPYTIPRP,0.0978
16,RRIRKRPPRLPRPRPRPITMPRP,-0.122
17,RRIRYRPPRLPRPRPRPKIFPRP,-0.297
18,RRIRMRPPRLPRPRPRPWYDPRP,0.0249
19,RRIRKRPPRLPRPRPRPIRTPRP,0.416
20,RRIRYRPPRLPRPRPRPAQLPRP,-0.392
21,RRIRPRPPRLPRPRPRPQFHPRP,-0.3

# Reference: the supplement of paper PMC9112550, “Optimization of the antimicrobial peptide Bac7 by deep mutational scanning” (BMC Biology, 2022)
